# Laboratory results taken from US20090178146.
# Columns and labels:
# [1] = test system: GST-fused SP-3 peptide of NFAT1 (amino acids 264-295) with Ser>Ala substitutions in the serines phosphorylated in cells
# [2] = test system: GST-fused peptide corresponding to the SP-3 motif (amino acids 264-295) of NFAT1, wild type
substance,measurement,setting,value
"recombinant DYRK1A protein kinase (Upstate Biotechnology), bacterially expressed","in vitro kinase assay with recombinant kinase, phosphorylation of GST-peptide",[1],neither kinase phosphorylated an SP-3 peptide with Ser>Ala substitutions in the specific serine residues known to be phosphorylated in cells
same,"in vitro kinase assay with recombinant kinase, phosphorylation of GST-peptide",[2],DYRK2 and DYRK1A both displayed strong and selective kinase activity towards the SP-3 motif of NFAT1
